# In patent publication US8663642B2, “Anti-CD70 antibody-drug conjugates and their use for the treatment and prevention of cancer and immune disorders” (priority 2003, dated 2014):
# What was measured:
# [1] = tested on: CD70^− Jurkat cells; assay: 3H-TdR proliferation assay, hematologic lines; assay type: cell-based, human; details: at concentrations as high as 2 μg/ml
# Procedure: (§1) FIG. 5: Effects of anti-CD70 ADCs on the proliferation of transformed hematologic cell lines. A subset of the CD70^+ cell lines shown in FIG. 4 and the CD70^− Jurkat cell line were tested for their sensitivity toward 1F6 ADCs. Graded doses of the 1F6-vcMMAE, 1F6-vcAFP, or the corresponding non-binding control IgG (IgG) ADCs were added to cells at the initiation of culture. Cells were exposed to the ADCs continuously for a total of 96 hours. Proliferation was determined by pulsing with ^3H-TdR during the last 16 hours of incubation. The upper panels show the response of the WSU-NHL and Jurkat lines. The lower panel summaries the responses by the tested cell lines to 1F6-vcMMAE and 1F6-vcAFP in form of IC50s.
# (§2) A subset of the CD70^+ hematologic lines listed in FIG. 4 was tested for sensitivity to the 1F6 ADCs. These lines were seeded at 5,000 cells per well in 96-well plates in quadruplicates in a total of 200 μl of culture medium containing graded doses of the ADCs as indicated in the FIG. 5 and the accompanying figure legend. Proliferation assays were carried out for 96 hours. Tritiated thymidine (^3H-TdR) incorporation during the last 16 hours of incubation was used to assess DNA synthesis. The responses of a CD70^+ B lymphoma cell line WSU-NHL and the CD70^− Jurkat cells are shown in the upper panels of FIG. 5. […] Proliferation inhibitory effects were apparent when the ADCs were used at concentrations higher than 0.005 μg/ml. […] On the other hand, proliferation of the CD70^− Jurkat acute T leukemia cell line was not affected by either 1F6-vcMMAE or 1F6-vcAFP at concentrations as high as 2 μg/ml. […] The responses of other CD70^+ cell lines tested are summarized in the lower panel of FIG. 5. […] Moreover, EBV-LCLs are phenotypically very similar to activated normal B cells.
# [2] = tested on: WSU-NHL cells; assay: 3H-TdR proliferation assay, hematologic lines; assay type: cell-based, human; details: 96 hours, 3H-TdR last 16 hours
# Procedure: as §1, §2
# [3] = tested on: Caki-1 cells; assay: 3H-TdR proliferation assay, RCC lines; assay type: cell-based, human; details: Caki-1 cells
# [4] = tested on: Caki-2 cells; assay: 3H-TdR proliferation assay, RCC lines; assay type: cell-based, human
# [5] = tested on: CD70^+ RCC lines; assay: 3H-TdR proliferation assay, panel of RCC lines; assay type: cell-based, human
# [6] = tested on: CD70^− Hs 835.T cells; assay: 3H-TdR proliferation assay, CD70-negative RCC line; assay type: cell-based, human; details: CD70^− Hs 835.T cells
# [7] = tested on: normal kidney epithelial lines RPTEC and HRCE; assay: Proliferation/cytotoxicity on normal kidney epithelial lines; assay type: cell-based, human
# [8] = tested on: PBMCs stimulated with irradiated allogeneic CESS cells; assay: Mixed lymphocyte reaction (3H-TdR); assay type: cell-based, human; details: MLR, 5-day culture
# [9] = tested on: CD70^+ CD8^+/Vβ17^+ T cells; assay: In vitro deletion of M1 peptide-specific T cells (flow cytometry, viable counts); assay type: cell-based, human
# Procedure: PBMCs from a normal HLA-A0201donor were stimulated with the M1 peptide for 5 days. 1F6 ADCs or control non-binding IgG (cIgG) ADCs were added to cells to a final concentration of 1 μg/ml. Total viable cell counts were conducted at 24, 48, and 76 hours post drug addition. Total numbers of CD8^+/Vβ17^+ for each culture condition are calculated (upper panel).
# FIG. 19: Dose-response comparison of anti-CD70 ADCs on deletion of antigen-specific CD8^+/Vβ17^+ cells. PBMCs from a normal HLA-A0201donor were stimulated with the M1 peptide for 5 days. 1F6 ADCs or control non-binding IgG (cIgG) ADCs were given to cells to the specified final concentrations. The percentages of CD8^+/Vβ17^+ cells 4 days post ADC addition was determined by flow cytometry as in FIG. 17.
# To examine CD70 expression on activated antigen-specific T cells, PBMCs from a normal donor expressing HLA-A0201 were stimulated with the M1 peptide. PBMCs were seeded at 2×10^6 cells/ml with 5 μg/ml of M1 peptide in AIMV medium supplemented with 5% human AB serum. IL-2 (Proleukin, Chiron) and IL-15 (R&D Systems, MN) were added to final concentrations of 20 IU/ml and 5 ng/ml, respectively, once every two days beginning on day 2 after culture initiation. The expansion of CD8^+/Vβ17^+ T cells and induction of CD70 on the CD8^+/Vβ17^+ was followed by three-color flow cytometry. Vβ17^+ T cells were identified by the anti-TCRVβ17 mAb clone E17.5F3 (Beckman Coulter, Miami, Fla.).
# PBMCs from a normal donor expressing HLA-A0201 were stimulated with the M1 peptide as described in Example 11. On day 5, cells were harvested, washed, and re-seeded at 0.5-1×10^6 cells/ml (approximately 100,000 of CD8^+/Vβ17^+ T cells) in fresh AIMV medium supplemented with 5% human AB, 20 IU/ml of IL-2, and 5 ng/ml of IL-15. 1F6 or control non-binding IgG (cIgG) ADCs were added to some cultures to a final concentration of 1 μg/ml. Total viable cell counts were conducted 24, 48, and 76 hours after ADC addition. Two-color flow cytometry was conducted to determine the percentages of CD8^+/Vβ17^+ cells among the viable cells. The absolute number of CD8^+/Vβ17^+ T cells in each culture was then calculated. […] The effects of 1F6 ADCs on the CD8^+/Vβ17^− cells were also evaluated.
# The potency of three 1F6 ADCs was then compared. HLA-A0201 PBMCs were stimulated with the M1 peptide and re-seeded as described for FIG. 18 with the various ADCs at the indicated concentrations (FIG. 19). The percent of CD8^+/Vβ17^+ T cells after a 96-hour incubation was determined.
# [10] = tested on: CD70^+ RCC lines; details: in 5 of 7 CD70^+ RCC lines tested
# Procedure: To examine the responses of CD70^+ RCC lines to 1F6 ADCs, cells were seeded between 1,000 to 3,000 cells per well in 100 μl of medium. An additional 100 μl of culture medium containing graded doses of ADCs were added to the wells after cells were allowed to attached overnight. In addition to DNA synthesis, cell viability, as a reflection of the cytotoxic activities of ADCs, was also assayed by the reduction of alamarBlue™ (Biosource International, Camarillo, Calif.). The alamarBlue™ dye was added at a one to four dilution during the last 4 to 24 hours of the incubation. Dye reduction was assessed by fluorescence spectrometry using the excitation and emission wavelengths of 535 nm and 590 nm, respectively. For analysis, the amount of ^3H-TdR incorporated or the extent of alamarBlue™ reduction by the treated cells was compared to that of the untreated control cells.
# [11] = tested on: Vβ17^− T cells; assay: Anti-CD3 plus anti-CD28 re-stimulation assay of bystander T cells (3H-TdR); assay type: cell-based, human; details: Vβ17^− T cells from culture treated with 1 μg/ml, 96 hours, no exogenous IL-2
# Text: PBMCs from a normal HLA-A0201donor were stimulated with the M1 peptide for 5 days.
# [12] = tested on: Caki-1 tumors; assay: Caki-1 subcutaneous xenograft model of RCC; assay type: in vivo, nude mice; details: Caki-1 xenograft, q4d×4
# Text: Tumors were initiated in nude mice by implanting tissue tumor blocks (30 mm^3 in size) containing Caki-1 cells. Treatment began when average tumor size within a treatment group was around 100 mm^3. In the upper panel, treatment for the IgG and 1F6 groups began 17 days post implantation (filled arrow), while treatment for the 1F6-vcAFP and IgG-vcAFP groups began 25 days post implantation (open arrow). Indicated doses of either unconjugated mAbs or their ADCs were given for one course on a q4d×4 schedule.
# Using xenografts of the Caki-1 line in nude mice, the […] antitumor activity of 1F6-vcAFP was tested. To establish Caki-1 tumors, nude mice were injected subcutaneously with 5×10^6 Caki-1 cells in 0.2 ml PBS. […] Caki-1-containing tumors were excised from tumor bearing mice and tumor tissue blocks of approximately 30 mm^3 were prepared. Naive nude mice to be used for evaluating in vivo antitumor activity of anti-CD70 ADC were each implanted subcutaneously with one tumor block of 30 mm^3. […] Treatment was initiated when the average tumor size within a group was approximately 100 mm^3 (FIG. 12, arrows).
# [13] = tested on: tetanus toxoid-specific T cells; assay type: cell-based, human
# [14] = tested on: CD70-expressing multiple myeloma cells; assay: Cytotoxic activity against multiple myeloma cell lines (panel); assay type: cell-based, human
# Procedure: Cell surface CD70 expression was evaluated in a panel of multiple myeloma cell lines (Table 3). Copy number of CD70 molecules expressed by each cell line was determined by quantitative flow cytometry using the QIFIKit® (Dako, Carpinteria, Calif.). Response of these cells to anti-CD70 ADC-mediated cytotoxicity was determined.
# [15] = tested on: Hodgkin's disease cell lines; assay: Cytotoxic activity against Hodgkin's disease cell lines (panel); assay type: cell-based, human
# Procedure: Cell surface CD70 expression was also evaluated in panels of Hodgkin's disease (Table 4) and glioblastoma cell lines (Table 5). The copy number of CD70 molecules expressed by each cell line was determined by quantitative flow cytometry using the QIFIKit® (Dako, Carpinteria, Calif.). The response of these cells to anti-CD70 ADC-mediated cytotoxicity was determined.
molecule,measurement,setting,value
"1F6-vcMMAE: anti-CD70 mAb 1F6 linked to monomethyl auristatin E by the valine-citrulline (vc) dipeptide linker (conjugate, non-natural residues, anti-CD70 mAb 1F6 linked to monomethyl auristatin E by the valine-citrulline (vc) dipeptide linker) VH: QIQLVQSGPEVKKPGETVKISCKASGYTFTNYGMNWVKQAPGKGLKWMGWINTYTGEPTYADAFKGRFAFSLETSASTAYLQINNLKNEDTATYFCARDYGDYGMDYWGQGTSVTVSS VL: DIVLTQSPASLAVSLGQRATISCRASKSVSTSGYSFMHWYQQKPGQPPKLLIYLASNLESGVPARFSGSGSGTDFTLNIHPVEEEDAATYYCQHSREVPWTFGGGTKLEIKR",effect on proliferation of Jurkat cells,[1],not affected
same,effect on the proliferation of WSU-NHL cells,[2],dose-dependent inhibitory effects
same,"IC50, proliferation",[3],lower than 20 ng/ml
same,"IC50, proliferation",[4],lower than 20 ng/ml
same,activity on proliferation,"[5]; other CD70^+ RCC lines (not Caki-1, Caki-2)",not active
same,activity on proliferation,[6],not active
same,activity on proliferation,[7],not active
same,effect on T cell proliferation,[8],substantially inhibited T cell proliferation
same,number of CD8^+/Vβ17^+ T cells,"[9]; 1 μg/ml, 76 hours after ADC addition","approximately 400,000"
same,inhibition of CD8^+/Vβ17^+ T cell expansion,[9]; 96-hour incubation,dose-dependent inhibition
same,relative inhibitory activity,[9]; 96-hour incubation,weaker than both 1F6-vcAFP and 1F6-vcMMAF
"1F6-vcMMAF: anti-CD70 mAb 1F6 linked to monomethyl auristatin phenylalanine by the valine-citrulline (vc) dipeptide linker (conjugate, non-natural residues, anti-CD70 mAb 1F6 linked to monomethyl auristatin phenylalanine by the valine-citrulline (vc) dipeptide linker) VH: QIQLVQSGPEVKKPGETVKISCKASGYTFTNYGMNWVKQAPGKGLKWMGWINTYTGEPTYADAFKGRFAFSLETSASTAYLQINNLKNEDTATYFCARDYGDYGMDYWGQGTSVTVSS VL: DIVLTQSPASLAVSLGQRATISCRASKSVSTSGYSFMHWYQQKPGQPPKLLIYLASNLESGVPARFSGSGSGTDFTLNIHPVEEEDAATYYCQHSREVPWTFGGGTKLEIKR",IC50 values for proliferation inhibition,[5]; CD70^+ RCC lines tested,lower than 30 ng/ml
same,IC50 values to induce cytotoxicity,[10],lower than 30 ng/ml
same,CD8^+/Vβ17^+ T cells in the culture,"[9]; 1 μg/ml added on day 5, 4 days, untreated 47%",14%
same,inhibition of CD8^+/Vβ17^+ T cell expansion,[9]; 96-hour incubation,dose-dependent inhibition
same,response to anti-CD3 plus anti-CD28 re-stimulation,[11],comparable to that of the untreated cells
"1F6: anti-human CD70 monoclonal antibody obtained from the Central Laboratory of the Netherlands Red Cross Blood Transfusion Service (antibody, V domains shown, Mature 1F6 Heavy Chain Variable region from Figure 1; Mature 1F6 Light Chain Variable Region from Figure 1, anti-human CD70 monoclonal antibody obtained from the Central Laboratory of the Netherlands Red Cross Blood Transfusion Service) VH: QIQLVQSGPEVKKPGETVKISCKASGYTFTNYGMNWVKQAPGKGLKWMGWINTYTGEPTYADAFKGRFAFSLETSASTAYLQINNLKNEDTATYFCARDYGDYGMDYWGQGTSVTVSS VL: DIVLTQSPASLAVSLGQRATISCRASKSVSTSGYSFMHWYQQKPGQPPKLLIYLASNLESGVPARFSGSGSGTDFTLNIHPVEEEDAATYYCQHSREVPWTFGGGTKLEIKR",therapeutic activity / tumor growth,[12],Very little therapeutic activity
same,effect on tetanus toxoid-induced T cell proliferation,[13],did not show a significant effect
"c1F6-vcMMAF4: chimeric 1F6 (c1F6)-vcMMAF4 anti-CD70 ADC (conjugate, non-natural residues, chimeric 1F6 (c1F6)-vcMMAF4 anti-CD70 ADC) VH: QIQLVQSGPEVKKPGETVKISCKASGYTFTNYGMNWVKQAPGKGLKWMGWINTYTGEPTYADAFKGRFAFSLETSASTAYLQINNLKNEDTATYFCARDYGDYGMDYWGQGTSVTVSS VL: DIVLTQSPASLAVSLGQRATISCRASKSVSTSGYSFMHWYQQKPGQPPKLLIYLASNLESGVPARFSGSGSGTDFTLNIHPVEEEDAATYYCQHSREVPWTFGGGTKLEIKR","IC50 values, range over the panel",[14],1.2 to 160 ng/mL
same,"IC50 values, range over the panel",[15],0.41 to 42 ng/mL
